Test results taken from US20120100141A1 (GlaxoSmithKline, published 2012).

Columns and labels:
Assay in all cases: melanophore functional bioassay, transfected cells (data not shown)
Mouse NPY4R = target: T1, Mouse NPY4R (mouse, UniProt Q61041 1-375)
T1 construct: whole, on cells; also called NPY4R (mouse)
Procedure: (§1) For assaying purposes cells were washed, trypsinized and resuspended in 0.7×EPG PBS at a concentration of 15×10⁶ cells per ml. 800 μl of cells were gently mixed with 20-40 μg of cDNA and incubated on ice for 20 minutes. […] After 2 hours they were placed in a sealed container in the incubator overnight (25° C., 0% CO2). The following day media was aspirated and 25 μl MAB (Melanophore Assay Buffer) containing 1% DMSO and 10 nM melatonin was added to each well. Cells were incubated for one hour and basal transmittance was measured on a SLT Spectra plate reader at 620 nm. Next, a dilution series (12 point series using 3 fold dilution intervals in MAB) containing 25 μl of a 2× concentration peptides and standards were added directly to each well. Standards included melatonin 10 nM, MSH 200 nM and MAB and were used to establish assay system Minimum, Maximum, and basal response levels, respectively. Following addition of peptides and standards, plates were incubated for 1 hour and transmittance measured as before. Data was analyzed using Robosage (version 7.3.2) by calculating (1−Tf/Ti) where Ti is initial baseline read, and Tf is the response read.

Human NPY4R = target: T2, Human NPY4R (human, UniProt P50391 1-375)
T2 construct: whole, on cells; also called NPY4R (human)
Procedure: as §1

Mouse NPY2R = target: T3, Mouse NPY2R (mouse, UniProt P97295 1-381)
T3 construct: whole, on cells; also called NPY2R (mouse)
T3 sequence (looked up): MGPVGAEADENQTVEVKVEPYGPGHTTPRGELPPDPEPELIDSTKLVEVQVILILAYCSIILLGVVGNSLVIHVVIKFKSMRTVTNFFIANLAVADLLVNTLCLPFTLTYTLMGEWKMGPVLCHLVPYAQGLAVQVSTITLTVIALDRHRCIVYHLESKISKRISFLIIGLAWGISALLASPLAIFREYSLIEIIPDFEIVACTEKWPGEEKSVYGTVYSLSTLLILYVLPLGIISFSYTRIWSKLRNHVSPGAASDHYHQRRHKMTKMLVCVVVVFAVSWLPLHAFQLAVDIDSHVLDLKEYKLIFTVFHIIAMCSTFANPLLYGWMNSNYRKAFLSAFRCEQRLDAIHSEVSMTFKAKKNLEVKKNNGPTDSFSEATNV
Procedure: as §1

Human NPY1R = target: T4, Human NPY1R (human, UniProt P25929 1-384)
T4 construct: whole, on cells; also called NPY1R (human)
T4 sequence (looked up): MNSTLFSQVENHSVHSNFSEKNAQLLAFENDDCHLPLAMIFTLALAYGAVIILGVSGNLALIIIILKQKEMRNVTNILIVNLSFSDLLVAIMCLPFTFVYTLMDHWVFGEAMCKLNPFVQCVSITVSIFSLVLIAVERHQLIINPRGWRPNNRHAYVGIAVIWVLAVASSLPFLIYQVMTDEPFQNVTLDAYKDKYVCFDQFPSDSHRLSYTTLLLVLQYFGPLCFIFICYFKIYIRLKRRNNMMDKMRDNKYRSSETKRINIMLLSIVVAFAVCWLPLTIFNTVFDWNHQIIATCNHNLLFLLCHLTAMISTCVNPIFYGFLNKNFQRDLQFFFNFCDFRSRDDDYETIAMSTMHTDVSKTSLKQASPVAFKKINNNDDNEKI
Procedure: as §1

Mouse NPY1R = target: T5, Mouse NPY1R (mouse, UniProt Q04573 1-382)
T5 construct: whole, on cells; also called NPY1R (mouse)
T5 sequence (looked up): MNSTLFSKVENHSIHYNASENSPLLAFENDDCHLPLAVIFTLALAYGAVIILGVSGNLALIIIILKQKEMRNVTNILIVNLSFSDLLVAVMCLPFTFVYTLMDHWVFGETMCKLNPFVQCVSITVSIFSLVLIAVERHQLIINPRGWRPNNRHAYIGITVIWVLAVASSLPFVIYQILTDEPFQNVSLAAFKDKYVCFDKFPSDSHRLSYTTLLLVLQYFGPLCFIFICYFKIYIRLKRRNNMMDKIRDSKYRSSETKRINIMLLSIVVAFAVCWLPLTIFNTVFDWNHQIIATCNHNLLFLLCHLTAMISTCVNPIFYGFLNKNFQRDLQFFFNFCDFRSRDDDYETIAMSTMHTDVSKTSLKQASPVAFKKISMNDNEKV
Procedure: as §1

Mouse NPY5R = target: T6, Mouse NPY5R (mouse, UniProt O70342 1-466)
T6 construct: whole, on cells; also called NPY5R (mouse)
T6 sequence (looked up): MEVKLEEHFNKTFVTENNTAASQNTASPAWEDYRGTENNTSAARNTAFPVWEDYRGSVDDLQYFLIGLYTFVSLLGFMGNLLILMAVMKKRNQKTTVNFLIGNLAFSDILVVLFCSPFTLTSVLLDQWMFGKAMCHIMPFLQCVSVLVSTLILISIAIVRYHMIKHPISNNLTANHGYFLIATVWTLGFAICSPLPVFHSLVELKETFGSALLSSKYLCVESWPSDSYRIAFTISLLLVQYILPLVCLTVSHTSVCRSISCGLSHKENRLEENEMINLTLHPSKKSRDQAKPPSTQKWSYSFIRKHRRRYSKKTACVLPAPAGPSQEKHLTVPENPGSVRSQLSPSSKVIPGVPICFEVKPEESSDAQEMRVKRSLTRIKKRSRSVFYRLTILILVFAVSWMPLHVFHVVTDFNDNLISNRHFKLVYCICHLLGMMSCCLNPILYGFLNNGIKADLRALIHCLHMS
Procedure: as §1

Human NPY5R = target: T7, Human NPY5R (human, UniProt Q15761 1-445)
T7 construct: whole, on cells; also called NPY5R (human)
T7 sequence (looked up): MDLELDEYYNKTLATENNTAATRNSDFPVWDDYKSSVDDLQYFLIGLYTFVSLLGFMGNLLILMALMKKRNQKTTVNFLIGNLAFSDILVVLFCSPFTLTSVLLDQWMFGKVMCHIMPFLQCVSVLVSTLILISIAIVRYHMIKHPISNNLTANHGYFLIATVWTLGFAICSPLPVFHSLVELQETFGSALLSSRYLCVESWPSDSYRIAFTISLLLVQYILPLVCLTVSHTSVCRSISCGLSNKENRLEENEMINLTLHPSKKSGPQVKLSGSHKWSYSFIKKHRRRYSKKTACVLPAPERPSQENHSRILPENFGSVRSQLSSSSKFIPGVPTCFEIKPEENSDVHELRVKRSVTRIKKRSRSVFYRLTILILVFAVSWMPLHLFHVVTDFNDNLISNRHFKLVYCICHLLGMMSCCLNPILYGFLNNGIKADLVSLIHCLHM
Procedure: as §1

Human NPY2R = target: T8, Human NPY2R (human, UniProt P49146 1-381)
T8 construct: whole, on cells; also called NPY2R (human)
T8 sequence (looked up): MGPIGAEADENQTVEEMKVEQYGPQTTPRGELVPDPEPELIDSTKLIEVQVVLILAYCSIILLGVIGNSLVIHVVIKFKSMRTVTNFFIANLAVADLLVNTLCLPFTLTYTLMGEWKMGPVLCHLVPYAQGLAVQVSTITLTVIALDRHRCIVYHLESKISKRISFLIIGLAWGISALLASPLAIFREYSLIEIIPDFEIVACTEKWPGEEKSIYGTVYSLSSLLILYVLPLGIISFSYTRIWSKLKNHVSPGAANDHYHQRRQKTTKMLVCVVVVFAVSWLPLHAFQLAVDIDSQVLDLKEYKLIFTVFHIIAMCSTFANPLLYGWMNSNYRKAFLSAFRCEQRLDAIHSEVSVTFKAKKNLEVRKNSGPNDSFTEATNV
Procedure: as §1

Measured: binding result

T2 sequence (P50391 whole entry): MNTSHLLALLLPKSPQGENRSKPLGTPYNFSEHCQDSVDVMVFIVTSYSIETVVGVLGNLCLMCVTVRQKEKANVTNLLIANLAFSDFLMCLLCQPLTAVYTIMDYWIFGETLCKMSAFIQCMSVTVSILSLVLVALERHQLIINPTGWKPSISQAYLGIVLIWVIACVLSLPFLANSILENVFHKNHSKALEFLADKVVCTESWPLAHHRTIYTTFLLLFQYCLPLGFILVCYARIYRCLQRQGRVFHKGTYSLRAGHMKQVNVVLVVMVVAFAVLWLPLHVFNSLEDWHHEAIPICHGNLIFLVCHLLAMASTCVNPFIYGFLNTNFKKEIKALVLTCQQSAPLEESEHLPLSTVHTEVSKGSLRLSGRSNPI
T1 sequence (Q61041 whole entry): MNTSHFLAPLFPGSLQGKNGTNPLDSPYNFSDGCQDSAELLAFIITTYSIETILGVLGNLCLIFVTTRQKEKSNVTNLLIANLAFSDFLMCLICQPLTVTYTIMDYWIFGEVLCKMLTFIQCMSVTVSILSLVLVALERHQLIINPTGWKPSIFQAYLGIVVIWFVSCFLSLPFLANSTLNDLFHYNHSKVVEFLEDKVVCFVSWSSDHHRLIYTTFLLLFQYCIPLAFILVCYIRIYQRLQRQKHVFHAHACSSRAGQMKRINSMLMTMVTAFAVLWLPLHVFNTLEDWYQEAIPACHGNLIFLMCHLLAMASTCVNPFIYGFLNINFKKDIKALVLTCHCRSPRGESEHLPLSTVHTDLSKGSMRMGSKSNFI

B1: PYY (3-36) DOM7h-14-10 (R108C) AlbudAb peptide conjugate DMS7605 (other)
chain: DIQMTQSPSSLSASVGDRVTITCRASQWIGSQLSWYQQKPGKAPKLLIMWRSSLQSGVPSRFSGSGSGTDFTLTISSLQPEDFATYYCAQGLRHPKTFGQGTKVEIKC
peptide: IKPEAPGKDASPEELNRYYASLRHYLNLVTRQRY
modifications: C-terminal amide; lysine at position 10 derivatised with the 4 repeat PEG linker to the dAb cysteine; free C-terminal cysteine (R108C) coupled through maleimide to a 4 repeat PEG linker that is attached to the lysine at position 10 of the PYY peptide
notes: Chemical conjugate, not a genetic fusion; The dAb was made in E. coli, the peptide and PEG linker by chemical synthesis; also called DMS7167:PYY3-36; PYY(3-36) AlbudAb
binds: all assays above
